In patent US12674174B2, “Protoporphyrinogen oxidase (PPO) resistance plant” (PLANTARC BIO LTD., priority 2022, dated 2026):

What was measured:
[1] = system: transgenic Arabidopsis plants; format: in vivo; conditions: for level of resistance against Aurora (in words): Aurora 0.01% to 0.5%, compared to control plants; for level of resistance to Strike, more tolerant to treatment as compared to control plants / level of resistance against Strike (in words): Strike 0.01% to 1%; for level of resistance to Strike, more tolerant to treatment as compared to control plants: 5 orders of magnitude
Text: (SEQ ID NO: 8 was cloned from SEQ ID NO: 1, SEQ ID NO: 9 was cloned from SEQ ID NO: 2, SEQ ID NO: 10 was cloned from SEQ ID NO: 3, SEQ ID NO: 11 was cloned from SEQ ID NO: 4, SEQ ID NO: 12 was cloned from SEQ ID NO: 5, SEQ ID NO: 13 was cloned from SEQ ID NO: 6 SEQ ID NO: 14 was cloned from SEQ ID NO: 7). […] FIG. 1B summarizes the results of the three experiments described hereinabove.

Arabidopsis plants = conditions: yes/no

B1: SEQ ID NO: 2: PPO from Aspergillus sp. Protein. (protein, listed as Aspergillus sp.)
chain: MRLPCASSRAFRQVRAPLALLHRGQRHAVHTKQFDAAVIGGGITGLTAAYQLSRDPSCSKVTLYEKSSHLGGWLSSEQIPVPGGHVVFEYGPRTLRTSSPSCLPMMDLIMNLDLLDDVLICDKKSPAAQNRYIYYPDHLVRLPFPPTEGLLKTAWTLLMEPLFETFLYSAIFEKPKRAENTHILSRDESVADFVSRRFSPKISENLASAVMAGIFAGDVNRLSAEMAIGYVRELEKRYGSIVDGMMTQRASEMRAMPMDELLALESVAVPSHSDDRYWKSLRAVVTDASVLTLKNGLGQLTDAMAAQLRSSRNVEVVTGTEVTSLSQNPKTQDLTIGFGKNESRTHNRVIATHAPSSLARQIQNTKVGVVPSDTIRDLGQNNYAVTVMVVNLYYEDPDLVPVEGFGYLLPSSVPFEQNPERALGVIFGSQSSEGQDTAPGTKLTVIMGGHLWDGWSESDYPDPDKAIEMAQALLHRHLGIKTAPSVARARLLRDAIPQYTVGHLSRMKELSHSVRSDFHKRLTLAGAWYGTVGIGVVDCIRQGYLASSYGVGSKKLGPGNSRRPWTKHDFHNWELEGGIATSPVRFDNVHVTERQHY
[1]
  level of resistance against Aurora (in words): very high levels of resistance
  level of resistance to Strike, more tolerant to treatment as compared to control plants: about 10^5
Arabidopsis plants; Table 1
  High concentration herbicide tolerance: yes
Arabidopsis plants; Table 2, FIG. 6C legend: Star 1.25 kg/hectare
  Herbicide tolerance: yes

B2: SEQ ID NO: 10: PPO from Fusarium sp. fused to cTP. Chimeric Protein; cloned from SEQ ID NO: 3 (protein)
chain: MELSLLRPTTQSLLPSFSKPNLRLNVYKPLRLRCSVAGGMSRRRAESTAVALLSSPAKSHLQPPLRRLDGIRSLSTSSALARRRPIVACNYTQSFNNGRTFVSQAKDANIAVLGGGLTGLTAAYYLAKKLPSTAKITLYESSDRLGGWIKTDRVPVDIEGKSGTLSFERGARSLSSLVGNTFRFDDLVLYDLALDLGLAINSPSQQPRYIYYPDHLVPTPPNISIFDMLREPLYLEIIGASLGLGINSLRKRTLPSKDYSVSEWLYAVSNSRKGIGNLASAMMHGIYGGDIHKLSARCVLDRLYWGWYLPNPGLSVRPMPVAEQALLETLGQDKQIQKMALEPRSALVDFGDKGMESLPQALSAALREQPNITIKTGEAVQDVVYNKANQQVHITSSNAKDNSKHNSKVYDKVISTLSAQDIALLAGNKLPSLSTAHSVSVMTVNIWFPQENLKPPGFGYLIPNSVAPELNPEHALGVFFDSDVQTRSKDEPAGTKLFVLMGGHYYDRPDVTPPTEEEAIIQARNLLERHLGIPRDAPAYATANFARECIPQHYVGHQDRLKAAHTELTRNFGGRLAVAGGSFTRIGAVASLRAGYDAATAAKKGLEATGLEYLNDIQQFSVVATSHIPVRHFK
[1]
  level of resistance against Aurora (in words): not against Aurora
  level of resistance against Strike (in words): high levels of resistance
  level of resistance to Strike, more tolerant to treatment as compared to control plants: about 10^5

B3: SEQ ID NO: 12: PPO from Fusarium sp. fused to cTP. Chimeric Protein; cloned from SEQ ID NO: 5 (protein)
chain: MELSLLRPTTQSLLPSFSKPNLRLNVYKPLRLRCSVAGGMSRRRAESTAVALLSSPAKSHLQPPLRRLDGIRSLSTSSALARRRPIVACNYTQSFNNGRTFVSQAKDANIAVLGGGLTGLTAAYYLAKKLPSTAKITLYESSDRLGGWIKTDRVPVDIEGKSGTLSFERGARSLSSLVGNTFRFDDLVLYDLALDLGLAINSPSQQPRYIYYPDHLVPTPPNISIFDMLREPLYLEIIGASLGLGINSVRKRTLPSKDYSVSEWLYAVSNSRKGIGNLASAMMHGIYGGDIHKLSARCVLDRLYWGWYLPNPGLSVRPMPVAEQALLETLGQDKQIQKMALEPRSALVDFGDKGMESLPQALSAALREQPNITIKTGEAVQDVVYNKANQQVHITSSNAKDNSKHNSKVYDKVISTLSAQDIALLAGNKLPSLSTAHSVSVMTVNIWFPQENLKPPGFGYLIPNSVAPELNPEHALGVFFDSDVQTRSKDEPAGTKLFVLMGGHYYDRPDVTPPTEEEAIIQARNLLERHLGIPRDAPAYATANFARECIPQHYVGHQDRLKAAHTELTRNFGGRLAVAGGSFTRIGAVASLRAGYDAATAAKKGLEATGLEYLNDIQQFSVVATSQIPVRHFK
[1]
  level of resistance against Aurora (in words): not against Aurora
  level of resistance against Strike (in words): high levels of resistance
  level of resistance to Strike, more tolerant to treatment as compared to control plants: about 10^5

B4: SEQ ID NO: 6: PPO from Rhizopus sp. Protein. (protein, listed as Rhizopus sp.)
chain: MSSVAILGGGISGLSAAYYLARMAPPTTKITLIEGKKRLGGWIESRRVTPGHYDNIHQLPKNNSKENTILFEAGPRTLRPEGSNGAILLEMIRHLELNNENLMSVSKSHPSARHRYIYYKDKINTLPSDLQSFLLNKPPVLKSVPLAALLEPLKPSRFDKDGIAKDGIQDESIYSFMTRRFNEHTAIHLMGAVIHGIYAGDIKSLSLQSTLRSLYEAERIYGSAVLGMMKGASQVTTSVRERGMAARSRKEDPEWFGRMEKMSVIGFKSGMDTLPHQITSWLEQCPNVEVITDDPAEHIEIAHENKIKTQKGKTVHADHIISTLPSPVLERLVQHQPVLPHLSYNPSADVAVVNLAYSPDEMKLQYDGFGFLTPHRDTPYGNPLPGTLGVVFDSNALPIESERAVKLTAMIGGSDWKDAFGNVPIDELEPKVALDYTRKAVGTFLDIHAEPRYSMVNLQKQCIPQYLVGHQDRMLSLHHAIKKNYGHALSVSGASYLGVSVPDCIKNSRMLVEELLVSGALGSRQKVVTGLGKLEEQPTVDEMRDNARLSRGNTSVIMKS
[1]
  level of resistance against Aurora (in words): very high levels of resistance
  level of resistance to Strike, more tolerant to treatment as compared to control plants: about 10^5
